These results are taken from US6043072A, “Nucleic acids encoding Taxus geranylgeranyl diphosphate synthase, and methods of use” (Washington State University Research Foundation, priority 1998, dated 2000).

The nature of series [1]: Prenyltransferase assay of extracts of yeast expressing the GGPP synthase constructs, with product analysis by radio-TLC. The class given is biochemical, Taxus canadensis. The procedure: The standard assay for prenyltransferase activities was performed with 21 mg protein in a total volume of 100 ml of the extraction/assay buffer disclosed in Example 3. […] The reaction was quenched by the addition of 300 mil of methanol:conc. HCl (4:1, v/v), and the allylic diphosphate products were solvolyzed (50, 51) upon further incubation at 42° C. for 20 min. The resulting solvolysis products were extracted twice with 1 ml pentane, and were either analyzed by liquid scintillation counting (in toluene:ethanol (7:3, v/v) containing 0.4% Omnifluor (DuPont NEN); ^14 C counting efficiency=96.0%) or concentrated on ice under a gentle stream of Ar to […] for further analysis.
For radio-TLC analysis, samples were mixed with 10 mg each of geranylgeraniol (all trans), geranyllinalool (mixed geometric isomers), farnesol and geraniol and spotted on Whatman MKC 18F reversed phase plates that were developed with acetonitrile:acetone:water (15:4:1, v/v/v) and visualized with I2 vapor. Bands corresponding to the standards were scraped into scintillation vials for counting. For radio-GC analysis, the above pentane extract was diluted with 200 ml of an 8% ethereal solution of the internal standards before concentration on ice. Product identity was confirmed by radio-GC (Satterwhite, D. M. and Croteau, R. (1988) J. Chromatogr., 452:61-73) coincidence with the authentic standard on a 12 ft x 0.125 in. polydimethylsiloxane column (15% SE-30 on 80/100-mesh Chromasorb WHP; (Alltech, Inc., Nicholasville, Ky.), with He as carrier and temperature programming from 150° C. (1 min hold) to 240° C. (20 min hold) at 8° C./min.

A further series has as its system E. coli. The experiment in a line: Expression under a strong constitutive promoter in E. coli (vector pYPGE15). Format: cell-based. The method, then: (§1) The toxicity of the constitutively expressed, recombinant GGPP synthase gene in yeast and in E. coli parallels the in vitro activity of the enzyme expressed in the truncation series. […] This toxicity is not observed when the corresponding transformed yeast are grown on glucose or glycerol (uninduced condition), but only when the gene is actively expressed by growth under inducing conditions with galactose as the carbon source. The overexpression of this gene to produce a functional GGPP synthase probably interferes with metabolism by depleting intracellular pools of FPP, via diversion to GGPP, and thus limiting sterol biosynthesis. […] The vector used in these E. coli transformation experiments was pYPGE15, the plasmid derived from λPG15.

A further series relates to yeast strain (INVSc1). The experiment in a line: Growth/toxicity of constructs in yeast under galactose induction. Format: cell-based, S. cerevisiae. As to conditions: for growth of INVSc1 transformants on SLI medium: 30° C., 3 d, galactose (induced); for toxicity of the expressed recombinant GGPP synthase gene to host cells: inducing conditions, galactose as carbon source. The method, then:
To test the expression of GGPP synthase on galactose as carbon source, each construct was transformed into a yeast strain (INVSc1) that metabolizes this sugar efficiently.
as §1

Series [2] has as its system ANY119, an S. cerevisiae mutant. The experiment in a line: Complementation assay in yeast bet2-1 mutant. The class given is cell-based. The note with it: 37° C.; SGI (3 d) and N3 (5 d).
Description: The pYeDP60 constructs were transformed into the S. cerevisiae mutant ANY119 using the lithium acetate procedure (Treco, D. (1989) in Current Protocols in Molecular Biology (Ausubel, F. M., Brent, R., Kingston, R. E., Moore, D. D., Seidman, J. G., Smith, J. A. and White, T. J., Eds.), pp. 13.7.1-13.7.2, John Wiley and Sons, New York), and the transformed yeast were then plated on a synthetic medium containing glucose as the sole carbon source (but lacking uracil) and grown for 4 d at 25° C. Isolated colonies, corresponding to each construct, were then replica streaked onto SGI, N3 and SLI media and grown for 3, 5 or 7 d, respectively, at 25° C or 37° C.
SGI and SLI synthetic media contain, respectively, 20 g/liter glucose (G) or 20 g/liter galactose (L) in 1 g/liter bactocasamino acids (Difco), 6.7 g/liter yeast nitrogen base without amino acid (Difco), and 40 mg/liter DL-tryptophan.
The three pYeDP60/T. canadensis GGPP synthase constructs were introduced into and expressed in ANY119, an S. cerevisiae mutant that is defective for the β-subunit of type II geranylgeranyltransferase. […]

B1: Tr^295: 5'-truncated T. canadensis GGPP synthase of SEQ ID NO:2 beginning at nucleotide 295 (F^99), lacking the transit peptide (protein)
chain: FDFNEYMKSKAVAVDAALDKAIPLEYPEKIHESMRYSLLAGGKRVRPALCIAACELVGGSQDLAMPTACAMEMIHTMSLIHDDLPCMDNDDFRRGKPTNHKVFGEDTAVLAGDALLSFAFEHIAVATSKTVPSDRTLRVISELGKTIGSQGLVGGQVVDITSEGDANVDLKTLEWIHIHKTAVLLECSVVSGGILGGATEDEIARIRRYARCVGLLFQVVDDILDVTKSSEELGKTAGKDLLTDKATYPKLMGLEKAKEFAAELATRAKEELSSFDQIKAAPLLGLADYIAFRQN
As to B1, in series [1] (reversed phase TLC, [4-^14 C]IPP plus FPP as substrates), the “total radioactivity of solvolysis products coinciding with geranylgeraniol and geranyllinalool standards” value was 97%. Further, the “prenyltransferase activity of enzyme preparation” value in series [1] (yeast extracts, [4-^14 C]IPP and FPP) is “highly active”. Also, in the series on E. coli, the “growth of E. coli expressing the clone” value is listed as “the cells will not grow”. Also, in the series with yeast strain (INVSc1), the “growth of INVSc1 transformants on SLI medium” value was “did not grow at all” and the “toxicity of the expressed recombinant GGPP synthase gene to host cells” value is “extremely toxic”. In series [2], the “growth at restrictive temperature (rescue of bet2-1 mutant)” value is reported as “showed growth”.

B2: full-length: full-length T. canadensis GGPP synthase preprotein (SEQ ID NO:2) encoded by SEQ ID NO:1 (protein)
chain: MAYTAMAAGTQSLQLRTVASYQECNSMRSCFKLTPFKSFHGVNFNVPSLGAANCEIMGHLKLGSLPYKQCSVSSKSTKTMAQLVDLAETEKAEGKDIEFDFNEYMKSKAVAVDAALDKAIPLEYPEKIHESMRYSLLAGGKRVRPALCIAACELVGGSQDLAMPTACAMEMIHTMSLIHDDLPCMDNDDFRRGKPTNHKVFGEDTAVLAGDALLSFAFEHIAVATSKTVPSDRTLRVISELGKTIGSQGLVGGQVVDITSEGDANVDLKTLEWIHIHKTAVLLECSVVSGGILGGATEDEIARIRRYARCVGLLFQVVDDILDVTKSSEELGKTAGKDLLTDKATYPKLMGLEKAKEFAAELATRAKEELSSFDQIKAAPLLGLADYIAFRQN
For the molecule B2, the “activity relative to the truncated form expressed from Tr^295” value in series [1] (compared on a protein basis, yeast extracts) amounted to 12%. Also, the “growth of E. coli expressing the clone” value with E. coli was “the cells will not grow”. Besides, in the series on yeast strain (INVSc1), the “growth of INVSc1 transformants on SLI medium” value is “scanty growth” and the “toxicity of the expressed recombinant GGPP synthase gene to host cells” value is listed as “noticeable reduction in growth”. In series [2], the “growth at restrictive temperature (rescue of bet2-1 mutant)” value is reported as “showed growth”.
